± gives the uncertainty stated by the source.
Assay: self-splicing fitness, log relative to wild type (ln ratio); higher = more splicing; Tetrahymena group I intron in knt gene, E. coli kanamycin selection, DiMSum; sequences stand for … in CUCUCU…GGAGGGAAAAGUUAUCAGGCAUGCACCUGGUAGCUAGUCUUUAAACCAAUAGAUUGCAUCGGUUUAAAAGGCAAGACCGUCAAAUUGCGGGAAAGGGGUCAACAGCCGUUCAGUACCAAGUCUCAGGGGAAACUUUGAGAUGGCCUUGCAAAGGGUAUGGUAAUAAGCUGACGGACAUGGUCCUAACCACGCAGCCAAGUCCUAAGUCAACAGAUCUUCUGUUGAUAUGGAUGCAGUUCACAGACUAAAUGUCGGUCGGGGAAGAUGUAUUCUUCUCAUAAGAUAUAGUCGGACCUCUCCUUAAUGGGAGCUAGCGGAUGAAGUGAUGCAACACUGGAGCCGCUGGGAACUAAUUUGUAUGCGAAAGUAUAUUGAUUAGUUUUGGAGUACUCGUGGUCG
Summary of the method: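 Fitness was computed with DiMSum as the error-weighted combination of replicate fold changes, kanamycin versus none, each normalised to wild type. The library randomised all eight intron nucleotides of the P1ex region, with the intron placed in the knt kanamycin-resistance gene on pET-22b(+) in E. coli BL21(DE3). Six replicate transformations were grown overnight at 37°C or 30°C on LB agar with or without 25 μg/mL kanamycin, plus 100 μg/mL carbenicillin, 50 μM IPTG and 0.2% rhamnose. Pooled colonies were amplicon-sequenced on an Illumina HiSeq 2500.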

| Sequence | self-splicing fitness (ln) (30 °C) | self-splicing fitness (ln) (37 °C) |
| --- | --- | --- |
| UACUAGCAAUAUUACGGAGU | -3.43 ± 0.24 | -3.25 ± 0.29 |
| UCAUAGCAAUAUUACGGAUG | -2.58 ± 0.21 | -2.07 ± 0.21 |
| CAAAAGCAAUAUUACGCGUC | -3.72 ± 0.24 | -1.86 ± 0.18 |
| CGGCAGCAAUAUUACGCUAU | -3.57 ± 0.28 | -2.75 ± 0.26 |
| ACGAAGCAAUAUUACGCUGC | -3.95 ± 0.25 | -1.35 ± 0.18 |
| GUUUAGCAAUAUUACGGGUA | -3 ± 0.24 | -1.61 ± 0.17 |
| AUCCAGCAAUAUUACGACCG | -1.43 ± 0.084 | -0.707 ± 0.12 |
| GCAUAGCAAUAUUACGUUAU | -2.61 ± 0.16 | -3.08 ± 0.27 |
| CAGAAGCAAUAUUACGACCG | 0.169 ± 0.12 | 0.634 ± 0.15 |
| ACCCAGCAAUAUUACGCUCG | -3.65 ± 0.33 | -2.23 ± 0.26 |
| CACCAGCAAUAUUACGUAUU | -3.78 ± 0.15 | -2.7 ± 0.16 |
| GCCCAGCAAUAUUACGGCGA | -0.6 ± 0.082 | -0.337 ± 0.1 |
| GACAAGCAAUAUUACGCUAU | -1.96 ± 0.094 | -1.17 ± 0.1 |
| GAAGAGCAAUAUUACGAACA | -2.15 ± 0.23 | -1.54 ± 0.25 |
| UGACAGCAAUAUUACGGACU | -0.289 ± 0.063 | 0.203 ± 0.078 |
| CGCGAGCAAUAUUACGUUAG | -3.74 ± 0.21 | -1.33 ± 0.18 |
| UCUAAGCAAUAUUACGUUCG | -1.38 ± 0.12 | -1.12 ± 0.12 |
| UAAGAGCAAUAUUACGCAGU |  | -2.38 ± 0.28 |
| GUCGAGCAAUAUUACGCCCA |  | -0.376 ± 0.33 |
| UGCGAGCAAUAUUACGGCAU | -2.64 ± 0.27 |  |

| Sequence | self-splicing fitness (ln) (30 °C) | self-splicing fitness (ln) (37 °C) |
| --- | --- | --- |
| UUCUAGCAAUAUUACGGAUC | -2.3 ± 0.21 | -0.989 ± 0.31 |
| GCUCAGCAAUAUUACGGAUU | -0.53 ± 0.051 | 0.362 ± 0.075 |
| UACUAGCAAUAUUACGUGCC | -1.33 ± 0.14 | -2.6 ± 0.26 |
| GUUAAGCAAUAUUACGGGGC | -3.5 ± 0.24 | -2.58 ± 0.25 |
| UACAAGCAAUAUUACGCUGC | -2.03 ± 0.19 | -0.919 ± 0.32 |
| UAUCAGCAAUAUUACGUUCA | -0.267 ± 0.11 | 0.345 ± 0.15 |
| GACUAGCAAUAUUACGCACU | -0.55 ± 0.11 | 0.415 ± 0.16 |
| AGGAAGCAAUAUUACGUGUA | -2.06 ± 0.1 | -0.914 ± 0.085 |
| GUACAGCAAUAUUACGUAUU | -3.45 ± 0.14 | -2.45 ± 0.17 |
| AAGUAGCAAUAUUACGCGAU | -3.2 ± 0.16 | -2.19 ± 0.15 |
| GACUAGCAAUAUUACGCAGU | -3.21 ± 0.31 | -2.17 ± 0.2 |
| UAACAGCAAUAUUACGGUGG | -1.67 ± 0.067 | -1.06 ± 0.084 |
| UACGAGCAAUAUUACGCGUG | -4.43 ± 0.3 | -2.7 ± 0.21 |
| AACCAGCAAUAUUACGCGAG | -1.21 ± 0.063 | -0.492 ± 0.072 |
| CGGAAGCAAUAUUACGUACC | -2.22 ± 0.066 | -0.907 ± 0.085 |
| AGCAAGCAAUAUUACGGGAA | -2.65 ± 0.14 | -1.03 ± 0.1 |
| GCUAAGCAAUAUUACGCAGC | -3.14 ± 0.4 | -2.62 ± 0.28 |
| AAAUAGCAAUAUUACGGCCC | -0.752 ± 0.16 | -0.254 ± 0.22 |
| ACAAAGCAAUAUUACGCCGC | -3.43 ± 0.31 | -1.52 ± 0.28 |

Reference: the supplement of paper PMC7877785
